From publication PMC5522267, “Targeting PEPT1: a novel strategy to improve the antitumor efficacy of doxorubicin in human hepatocellular carcinoma therapy” (Oncotarget, 2017)
Marks after values point to notes of the source that are not given here.

Columns and labels:
PEPT1 = biological target: T1, PEPT1 (Homo sapiens, UniProt P46059); set-up: method as in previous research of the authors (Figure 1); details: Bel-7402, HepG2 and Caco-2 cells; ref previous research of the authors (Figure 1); cited from earlier work
T1 construct: Doxorubicin-tripeptide conjugate were incubated with HCC cell monolayer at pH 6.0 for 120 min; endogenous in cells; host or cells: Bel-7402, HepG2 (human HCC cells); Caco-2
T1 sequence (P46059 1-708): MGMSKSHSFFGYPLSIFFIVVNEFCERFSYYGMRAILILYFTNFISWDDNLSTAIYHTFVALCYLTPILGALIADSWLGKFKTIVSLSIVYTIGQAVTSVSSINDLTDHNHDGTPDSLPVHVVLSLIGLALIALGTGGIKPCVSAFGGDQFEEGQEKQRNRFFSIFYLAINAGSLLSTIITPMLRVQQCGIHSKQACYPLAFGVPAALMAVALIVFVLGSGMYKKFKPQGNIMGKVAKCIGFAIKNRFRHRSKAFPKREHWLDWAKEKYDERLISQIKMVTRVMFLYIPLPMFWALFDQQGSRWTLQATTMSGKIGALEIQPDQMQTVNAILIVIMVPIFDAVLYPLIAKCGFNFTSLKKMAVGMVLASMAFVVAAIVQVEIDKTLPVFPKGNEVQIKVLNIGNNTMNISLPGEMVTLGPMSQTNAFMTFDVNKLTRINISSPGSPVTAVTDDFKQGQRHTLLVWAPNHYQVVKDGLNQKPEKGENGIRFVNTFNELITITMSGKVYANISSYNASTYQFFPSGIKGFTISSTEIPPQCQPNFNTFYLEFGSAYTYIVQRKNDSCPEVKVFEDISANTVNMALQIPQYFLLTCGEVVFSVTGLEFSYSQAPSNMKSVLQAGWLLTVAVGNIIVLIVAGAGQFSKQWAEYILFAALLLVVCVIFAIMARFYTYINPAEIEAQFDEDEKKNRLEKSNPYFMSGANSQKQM

Bel-7402 [1] = assay: Drug concentration in tumor cells by HPLC, Bel-7402; type: cell-based, human; details: incubated 2 hours
Method: (§1) When the density of HCC cells reached to 3 × 10^6/ml, they were trypsinized and centrifuge (4°C, 800rpm, 5min), then discarded the supernatant, dropping medium 3 ml and evenly mixed. Cell suspension was divided into three groups (control group, Doxorubicin-tripeptide conjugate group and Doxorubicin group). The drug concentration was 0.01 mg/ml for cultured 2 hours avoiding light. Then the cells obtained by centrifugation were proceeded by the following steps: washed 3 times with 1 ml normal saline, added 0.5 ml ultra pure water (Millipore), broken by ultrasonic wave, drooped in acetonitrile (Tianjin Concord Technology Co. Ltd, China) 0.5 ml, mixed, ultrasonic oscillation for 10 mins, centrifuge (1200 rpm, 15 min), take the supernatant, filtration with filter membrane, take 20 μl for HPLC analysis (Agilent 1100 HPLC system, USA).
(§2) Chromatographic conditions were as follows: chromatographic column: DIONEX Acclaim 120 C18 (2.1 × 250 mm, 5 μm 120A), Mobile phase: Acetonitrile-0.2%NaH2PO4 aqueous solution (35: 65), Velocity: 0.35 ml/min, column temperature: 30°C, DAD, 254 nm, sample size: 20 μl. […] According to the chromatographic condition, the retention time (tR), peak position time, chromatographic behavior, resolution (R), the minimum detectable concentration and the intracellular drug concentration of these two drugs were detected in turn.

[2] = Cardiac indexes, HepG2 HCC mice; type: in vivo, nude mice; details: low dose, after treatment
Bel-7402 HCC = system: Bel-7402 HCC
From the text: (§3) An animal model of HCC cells (Bel-7402, HepG2) transplanted into nude mice was established according to the method described in ref. 10.

HepG2 HCC = system: HepG2 HCC
From the text: as §3

HepG2 [3] = assay: Drug concentration in tumor cells by HPLC, HepG2; type: cell-based, human; details: incubated 2 hours
Method: as §1, §2

[4] = Blood routine, Bel-7402 HCC mice; type: in vivo, nude mice; details: high dose, after treatment
[5] = Drug distribution in tissues by Small Animal Imaging, Bel-7402 HCC mice; type: in vivo, nude mice; details: Bel-7402 HCC mice (high dose group), compared with Doxorubicin group
From the text: (§5) What's more, the tumor, liver, jejunum and heart tissue of mice were dissected firstly for Small Animal Imaging (KODAK IS in-vivo FX, Kodak), and secondly were placed in the 10% Formaldehyde solution to prepare paraffin section, HE staining for histological examination.

Caco2 [6] = assay: Drug concentration in tumor cells by HPLC, Caco2; type: cell-based, human; details: incubated 2 hours
[7] = Blood routine, HepG2 HCC mice; type: in vivo, nude mice; details: low dose, after treatment
Bel-7402 [8] = assay: cells; type: cell-based, human; details: Bel-7402, MTT
Method: (§4) Cells in the growth log phase were seeded in 96-well plate (200 ul/well) with density 8×10^3/well for 24 hours, then the drugs were added. The concentration of Doxorubicin-tripeptide conjugate was 0.005 mg/ml, 0.01 mg/ml, 0.02 mg/ml, 0.04 mg/ml, 0.06 mg/ml in turn, while Doxorubicin followed by 0.005 mg/ml, 0.01 mg/ml, 0.02 mg/ml, 0.04 mg/ml, 0.06 mg/ml with a same dosing volume 100 μl. Each concentration group included five equal wells and was provided with a control well of medium alone as a negative control. Add 20 μl of MTT Reagent ( 5 mg/ml, Sigma) to each well, including controls and continue to be incubated at 37°C for 4 hours. Remove the supernatant, drop plus DMSO (200 μl/well) and measure the OD value in each well, including the blanks, at 490 nm by a Multi-Mode Reader (BioTek, Synergy 2, USA). To calculate the inhibitory rate and the half maximal inhibitory concentration (IC50) according to the formula: Inhibitory rate =(1-( the dosing group OD/the control group OD )) × 100%, IC50 = lg^-1 (Xm-i (ΣP-0.5)) (Xm: the logarithm of maximum concentration, I: the logarithm of maximum dose/ adjacent dose, P: the sum of each group inhibitory rate, Pm: the maximum inhibitory rate, Pn: the minimum inhibitory rate ).

HepG2 [9] = assay: cells; type: cell-based, human; details: HepG2, MTT
Method: as §4

Caco2 [10] = assay: cells; type: cell-based, human; details: Caco2, MTT
Method: as §4

HCC cells = assay: MTT on HCC cells (cell line not given); type: cell-based, human
Method: as §4

[11] = Cardiac indexes, Bel-7402 HCC mice; type: in vivo, nude mice; details: high dose, after treatment
[12] = Drug distribution in tissues by Small Animal Imaging, HepG2 HCC mice; type: in vivo, nude mice; details: HepG2 HCC mice (low dose group), compared with control group
From the text: as §5

SMILES: Cc1c(CC(=O)NCCCC[C@H](NC(=O)[C@@H](C)N)C(=O)O)c(=O)oc2cc(N)ccc12 [Ala-Lys-AMCA]
- inhibition of uptake by PEPT1 substrates (PEPT1): competitive inhibition by three known substrates of PEPT1
- uptake dependence on time and concentration (PEPT1): time-dependent and concentration-dependent

SMILES: COc1cccc2c1C(=O)c1c(O)c3c(c(O)c1C2=O)C[C@@](O)(C(=O)CO)C[C@@H]3O[C@H]1C[C@H](NC(=O)CNC(=O)CNC(=O)CN)[C@H](O)[C@H](C)O1 [Doxorubicin-tripeptide conjugate]
- drug concentration in tumor cells (Bel-7402 [1]): 3080 ± 30 ng/mL
- AST [2]: 637.75 ± 319.83 U/L
- CK [2]: 1070.75 ± 193.32 U/L
- CK-Mb [2]: 570.00 ± 99.07^b U/L
- GSH-PX [2]: 682.33 ± 51.09 U
- LDH [2]: 6116.75 ± 1136.22 U/L
- MDA [2]: 3.16 ± 0.26 nmol/mg
- SOD [2]: 164.15 ± 25.20 U/mg
- deaths during treatment (Bel-7402 HCC; Bel-7402, high dose group, 5W): 1 death during the treatment of 4W+
- Mice weight, Before treatment (Bel-7402 HCC; Bel-7402 HCC mice, baseline): 23.22 ± 1.57 g
- Mice weight, After treatment (Bel-7402 HCC; Bel-7402 HCC mice, high dose: Doxorubicin 60 mg/m^2, conjugate 300 mg/m^2, tail vein, 5 weeks): 20.13 ± 1.09^a g
- deaths during treatment (HepG2 HCC; HepG2, low dose group, 5W): no death
- Mice weight, Before treatment (HepG2 HCC; HepG2 HCC mice, baseline): 20.88 ± 5.37 g
- Mice weight, After treatment (HepG2 HCC; HepG2 HCC mice, low dose: Doxorubicin 40 mg/m^2, conjugate 200 mg/m^2, tail vein, 5 weeks): 19.90 ± 3.71 g
- drug concentration in tumor cells (HepG2 [3]): 2940 ± 20 ng/mL
- PLT [4]: 159.83 ± 74.74^b ×10^9/l
- RBC [4]: 7.50 ± 1.77 ×10^12/l
- WBC [4]: 7.05 ± 2.70^b ×10^9/l
- drug distribution in tissues [5]: mainly distributed in subcutaneous tumor tissue and liver metastatic tumor tissue and less in heart tissue
- drug concentration in tumor cells (Caco2 [6]): 3090 ± 30 ng/mL
- PLT [7]: 135.00 ± 69.55 ×10^9/l
- RBC [7]: 8.03 ± 0.91 ×10^12/l
- WBC [7]: 8.08 ± 3.40 ×10^9/l
- IC50 (Bel-7402 [8]): 52.5 µg/mL
- IC50 (HepG2 [9]): 51.4 µg/mL
- IC50 (Caco2 [10]): 52.9 µg/mL
- IC50 (HCC cells): 50 µg/mL
- change of mice weight during treatment (HCC mice, both dose groups): weight increase in group B at the early stage of treatment, but a weight decreased significantly at the late stage of treatment
- survival quality (general condition) (HCC mice, both dose groups): lethargy, vomiting and loss of appetite administered within 3 days, then gradually restored
- damage to heart and bone marrow (compared with the Doxorubicin group, cardiac indexes, histopathology, blood routine, bone marrow smears, P < 0.05): less damage to the heart and bone marrow
- AST [11]: 720.83 ± 303.52^b U/L
- CK [11]: 1025.17 ± 182.34^b U/L
- CK-Mb [11]: 424.33 ± 189.91^b U/L
- GSH-PX [11]: 700.50 ± 79.58^b U
- LDH [11]: 6517.00 ± 1956.59 U/L
- MDA [11]: 2.78 ± 0.22^b nmol/mg
- SOD [11]: 171.71 ± 15.51 U/mg
- drug distribution in tissues [12]: mainly distributed in subcutaneous tumor tissue and less in heart tissue
